# Measurements reported in US20140356383A1 (published 2014).
# Experiments:
# [1] = target: T1, human guanylyl cyclase C (GCC) (human, UniProt P25092 24-1073); test: cell-based or functional assay
# [2] = target: T1, human guanylyl cyclase C (GCC); test: flow cytometry, 293 GCC #2 cells, 1 µg/ml
# [3] = target: T1, human guanylyl cyclase C (GCC); test: flow cytometry, 293 GCC #2 cells, 0.25 µg/ml
# [4] = target: T1, human guanylyl cyclase C (GCC); test: flow cytometry, 293 GCC #2 cells, 0.001 µg/ml
# [5] = target: T1, human guanylyl cyclase C (GCC); test: flow cytometry, 293 GCC #2 cells, 0.004 µg/ml
# [6] = target: T1, human guanylyl cyclase C (GCC); test: flow cytometry, 293 GCC #2 cells, 0.016 µg/ml
# [7] = target: T1, human guanylyl cyclase C (GCC); test: flow cytometry, 293 GCC #2 cells, 0.063 µg/ml
# [8] = target: T2, TOK107-hIg (hGCC-ECD/hIgG1 Fc) (human); test: ELISA against TOK107-hIg; antibody concentration for half maximal binding
# T2 construct: Expressed in HEK293 cells; also called TOK107-hIgG; TOK107-Ig
# T2 sequence (chain, as listed by the source limits assumed): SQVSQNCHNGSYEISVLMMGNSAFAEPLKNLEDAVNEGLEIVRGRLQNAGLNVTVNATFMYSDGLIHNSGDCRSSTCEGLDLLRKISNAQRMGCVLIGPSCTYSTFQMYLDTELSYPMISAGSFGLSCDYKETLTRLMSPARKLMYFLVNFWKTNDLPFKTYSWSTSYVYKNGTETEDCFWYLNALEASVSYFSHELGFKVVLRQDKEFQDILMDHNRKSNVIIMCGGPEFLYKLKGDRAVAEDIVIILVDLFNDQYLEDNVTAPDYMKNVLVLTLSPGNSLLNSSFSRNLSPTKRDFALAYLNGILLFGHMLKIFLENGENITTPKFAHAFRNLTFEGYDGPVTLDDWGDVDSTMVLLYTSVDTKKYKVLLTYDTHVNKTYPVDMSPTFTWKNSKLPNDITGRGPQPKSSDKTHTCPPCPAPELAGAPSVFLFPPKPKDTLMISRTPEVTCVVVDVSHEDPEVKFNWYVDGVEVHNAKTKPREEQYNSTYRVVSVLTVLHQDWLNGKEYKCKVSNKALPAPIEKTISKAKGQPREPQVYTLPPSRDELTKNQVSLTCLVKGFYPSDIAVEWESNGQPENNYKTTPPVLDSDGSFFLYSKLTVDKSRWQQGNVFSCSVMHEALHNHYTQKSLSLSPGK
# [9] = target: T1, human guanylyl cyclase C (GCC); test: FACS with GCC-expressing cells (cell line not given); antibody concentration for half maximal binding
# [10] = target: T2, TOK107-hIg (hGCC-ECD/hIgG1 Fc); test: SPR, BIACORE T100, 22 C; Prep A 5F9 immobilized on CM4 chip, GCC-ECD-Fc injected; 1:1 model; replicate A
# [11] = target: T2, TOK107-hIg (hGCC-ECD/hIgG1 Fc); test: SPR, BIACORE T100, 22 C; Prep A 5F9 immobilized on CM4 chip, GCC-ECD-Fc injected; 1:1 model; replicate B
# [12] = target: T2, TOK107-hIg (hGCC-ECD/hIgG1 Fc); test: SPR, BIACORE T100, 22 C; Prep A 5F9 immobilized on CM4 chip, GCC-ECD-Fc injected; 1:1 model; replicate C
# [13] = target: T2, TOK107-hIg (hGCC-ECD/hIgG1 Fc); test: SPR, BIACORE T100, 22 C; Prep A 5F9 immobilized on CM4 chip, GCC-ECD-Fc injected; 1:1 model; replicate D
# [14] = target: T2, TOK107-hIg (hGCC-ECD/hIgG1 Fc); test: SPR, BIACORE T100, 22 C; Prep A 5F9 immobilized on CM4 chip, GCC-ECD-Fc injected; 1:1 model; replicate E
# [15] = target: T2, TOK107-hIg (hGCC-ECD/hIgG1 Fc); test: SPR, BIACORE T100, 22 C; Prep B (reference) 5F9 immobilized on CM4 chip, GCC-ECD-Fc injected; 1:1 model; replicate F
# [16] = target: T2, TOK107-hIg (hGCC-ECD/hIgG1 Fc); test: SPR, BIACORE T100, 22 C; Prep B (reference) 5F9 immobilized on CM4 chip, GCC-ECD-Fc injected; 1:1 model; replicate G
# [17] = target: T2, TOK107-hIg (hGCC-ECD/hIgG1 Fc); test: SPR, BIACORE T100, 22 C; Prep B (reference) 5F9 immobilized on CM4 chip, GCC-ECD-Fc injected; 1:1 model; replicate H
# [18] = target: T2, TOK107-hIg (hGCC-ECD/hIgG1 Fc); test: SPR, BIACORE T100, 22 C; Prep B (reference) 5F9 immobilized on CM4 chip, GCC-ECD-Fc injected; 1:1 model; replicate I
# [19] = target: T2, TOK107-hIg (hGCC-ECD/hIgG1 Fc); test: SPR, BIACORE T100, 22 C; Prep A 5F9 immobilized, GCC-ECD-Fc injected; average of replicates A-E (95% confidence interval in brackets)
# [20] = target: T2, TOK107-hIg (hGCC-ECD/hIgG1 Fc); test: SPR, BIACORE T100, 22 C; Prep B (reference) 5F9 immobilized, GCC-ECD-Fc injected; average of replicates F-I (95% confidence interval in brackets)
# T1 sequence (P25092 24-1073 limits assumed): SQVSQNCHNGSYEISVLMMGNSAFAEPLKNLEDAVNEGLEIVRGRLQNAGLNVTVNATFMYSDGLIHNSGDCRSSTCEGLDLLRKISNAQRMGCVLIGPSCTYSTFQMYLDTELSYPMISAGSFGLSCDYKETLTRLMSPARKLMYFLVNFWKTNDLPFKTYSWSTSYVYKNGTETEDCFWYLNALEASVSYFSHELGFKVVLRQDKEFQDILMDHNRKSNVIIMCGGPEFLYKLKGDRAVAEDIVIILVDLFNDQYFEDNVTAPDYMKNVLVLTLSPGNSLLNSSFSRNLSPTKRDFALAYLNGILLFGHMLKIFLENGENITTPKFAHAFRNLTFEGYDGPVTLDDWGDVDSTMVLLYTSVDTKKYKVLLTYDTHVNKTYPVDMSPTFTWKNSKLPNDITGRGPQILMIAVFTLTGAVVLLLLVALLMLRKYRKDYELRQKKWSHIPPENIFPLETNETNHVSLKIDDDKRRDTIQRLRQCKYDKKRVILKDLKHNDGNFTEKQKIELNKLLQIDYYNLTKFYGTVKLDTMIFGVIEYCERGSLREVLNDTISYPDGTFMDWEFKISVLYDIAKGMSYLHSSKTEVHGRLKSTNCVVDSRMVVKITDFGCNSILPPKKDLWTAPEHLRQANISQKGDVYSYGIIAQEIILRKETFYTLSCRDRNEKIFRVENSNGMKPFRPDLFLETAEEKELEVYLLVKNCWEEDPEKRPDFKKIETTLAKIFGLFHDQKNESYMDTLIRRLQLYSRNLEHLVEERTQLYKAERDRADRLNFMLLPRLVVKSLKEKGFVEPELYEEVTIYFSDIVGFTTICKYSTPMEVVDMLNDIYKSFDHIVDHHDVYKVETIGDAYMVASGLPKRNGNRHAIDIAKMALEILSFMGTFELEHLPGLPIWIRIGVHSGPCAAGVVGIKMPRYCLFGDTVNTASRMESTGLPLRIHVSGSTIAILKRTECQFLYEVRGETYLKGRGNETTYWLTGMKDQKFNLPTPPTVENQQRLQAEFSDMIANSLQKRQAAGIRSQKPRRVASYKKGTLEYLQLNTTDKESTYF
binder,measurement,setting,value
"5F9 vcMMAE immunoconjugate (antibody, V domains shown, mc-vc-MMAE linked to cysteines freed by partial reduction of interchain disulfides (outside this variable domain); average drug loading about 4 (3.6 in the described preparation), also called MLN0264; ML0264) VH: QVQLQQWGAGLLKPSETLSLTCAVFGGSFSGYYWSWIRQPPGKGLEWIGEINHRGNTNDNPSLKSRVTISVDTSKNQFALKLSSVTAADTAVYYCARERGYTYGNFDHWGQGTLVTVSS VL: EIVMTQSPATLSVSPGERATLSCRASQSVSRNLAWYQQKPGQAPRLLIYGASTRATGIPARFSGSGSGTEFTLTIGSLQSEDFAVYYCQQYKTWPRTFGQGTNVEIK","LD 50 (nM), direct cytotoxicity, CT 26 GCC #2.5 cells",[1],> 500 nM
same,"LD 50 (nM), direct cytotoxicity, CT 26 GCC #32 cells",[1],267 nM
same,"LD 50 (nM), direct cytotoxicity, HT 29 GCC #2 cells",[1],24.1 nM
same,"LD 50 (nM), direct cytotoxicity, HT 29 GCC #5 cells",[1],654 nM
same,"LD 50 (nM), direct cytotoxicity, HT 29 GCC #18 cells",[1],555 nM
same,"LD 50 (nM), direct cytotoxicity, HT29 GCC#5 cells",[1],0.59 nM
same,MFI,[2],7420
same,MFI,[3],7300
same,MFI,[4],445
same,MFI,[5],696
same,MFI,[6],1790
same,MFI,[7],4850
"5F9-vc-MMAF (antibody, V domains shown, mc-vc-MMAF linked to cysteines freed by partial reduction of interchain disulfides (outside this variable domain); average drug loading about four) VH: QVQLQQWGAGLLKPSETLSLTCAVFGGSFSGYYWSWIRQPPGKGLEWIGEINHRGNTNDNPSLKSRVTISVDTSKNQFALKLSSVTAADTAVYYCARERGYTYGNFDHWGQGTLVTVSS VL: EIVMTQSPATLSVSPGERATLSCRASQSVSRNLAWYQQKPGQAPRLLIYGASTRATGIPARFSGSGSGTEFTLTIGSLQSEDFAVYYCQQYKTWPRTFGQGTNVEIK","LD 50 (nM), direct cytotoxicity, CT 26 GCC #2.5 cells",[1],> 10 nM
same,"LD 50 (nM), direct cytotoxicity, CT 26 GCC #32 cells",[1],0.004 nM
same,"LD 50 (nM), direct cytotoxicity, HT 29 GCC #2 cells",[1],0.127 nM
same,"LD 50 (nM), direct cytotoxicity, HT 29 GCC #5 cells",[1],563 nM
same,"LD 50 (nM), direct cytotoxicity, HT 29 GCC #18 cells",[1],> 10000 nM
same,MFI,[2],7780
same,MFI,[3],7560
same,MFI,[4],440
same,MFI,[5],707
same,MFI,[6],1500
same,MFI,[7],4830
"5F9-mc-MMAF (antibody, V domains shown, mc-MMAF (non-cleavable linker) linked to cysteines freed by partial reduction of interchain disulfides (outside this variable domain); average drug loading about four) VH: QVQLQQWGAGLLKPSETLSLTCAVFGGSFSGYYWSWIRQPPGKGLEWIGEINHRGNTNDNPSLKSRVTISVDTSKNQFALKLSSVTAADTAVYYCARERGYTYGNFDHWGQGTLVTVSS VL: EIVMTQSPATLSVSPGERATLSCRASQSVSRNLAWYQQKPGQAPRLLIYGASTRATGIPARFSGSGSGTEFTLTIGSLQSEDFAVYYCQQYKTWPRTFGQGTNVEIK","LD 50 (nM), direct cytotoxicity, CT 26 GCC #2.5 cells",[1],> 10 nM
same,"LD 50 (nM), direct cytotoxicity, CT 26 GCC #32 cells",[1],0.064 nM
same,"LD 50 (nM), direct cytotoxicity, HT 29 GCC #2 cells",[1],3.1 nM
same,"LD 50 (nM), direct cytotoxicity, HT 29 GCC #5 cells",[1],> 10000 nM
same,"LD 50 (nM), direct cytotoxicity, HT 29 GCC #18 cells",[1],> 10000 nM
same,"LD 50 (nM), direct cytotoxicity, HT29 GCC#5 cells",[1],> 10 nM
same,MFI,[2],7580
same,MFI,[3],7400
same,MFI,[4],483
same,MFI,[5],776
same,MFI,[6],2110
same,MFI,[7],5350
"anti-GCC human monoclonal antibody 5F9 (antibody, V domains shown, also called mAb 5F9; MAb 5F9 (Prep A)) VH: QVQLQQWGAGLLKPSETLSLTCAVFGGSFSGYYWSWIRQPPGKGLEWIGEINHRGNTNDNPSLKSRVTISVDTSKNQFALKLSSVTAADTAVYYCARERGYTYGNFDHWGQGTLVTVSS VL: EIVMTQSPATLSVSPGERATLSCRASQSVSRNLAWYQQKPGQAPRLLIYGASTRATGIPARFSGSGSGTEFTLTIGSLQSEDFAVYYCQQYKTWPRTFGQGTNVEIK",MFI,[2],8030
same,MFI,[3],7820
same,MFI,[4],500
same,MFI,[5],937
same,MFI,[6],2460
same,MFI,[7],6620
same,EC50,[8],36.5 nM
same,EC50,[9],1.24 nM
same,Kd,[10],0.112 nM
same,koff,[10],1.19e-05 s⁻¹
same,kon,[10],106000 M⁻¹ s⁻¹
same,Kd,[11],0.0917 nM
same,koff,[11],1.1e-05 s⁻¹
same,kon,[11],120000 M⁻¹ s⁻¹
same,Kd,[12],0.201 nM
same,koff,[12],2.15e-05 s⁻¹
same,kon,[12],107000 M⁻¹ s⁻¹
same,Kd,[13],0.091 nM
same,koff,[13],1.11e-05 s⁻¹
same,kon,[13],122000 M⁻¹ s⁻¹
same,Kd,[14],0.184 nM
same,koff,[14],1.77e-05 s⁻¹
same,kon,[14],96400 M⁻¹ s⁻¹
same,Kd,[15],0.0789 nM
same,koff,[15],7.64e-06 s⁻¹
same,kon,[15],96800 M⁻¹ s⁻¹
same,Kd,[16],0.103 nM
same,koff,[16],1.24e-05 s⁻¹
same,kon,[16],120000 M⁻¹ s⁻¹
same,Kd,[17],0.105 nM
same,koff,[17],9.57e-06 s⁻¹
same,kon,[17],90900 M⁻¹ s⁻¹
same,Kd,[18],0.127 nM
same,koff,[18],1.54e-05 s⁻¹
same,kon,[18],121000 M⁻¹ s⁻¹
same,Kd,[19],0.136 nM
same,koff,[19],1.46e-05 s⁻¹
same,kon,[19],110000 M⁻¹ s⁻¹
same,Kd,[20],0.103 nM
same,koff,[20],1.13e-05 s⁻¹
same,kon,[20],107000 M⁻¹ s⁻¹
